Experimental data: paper doi:10.1101/2025.07.20.665809 (bioRxiv, 2025)

Molecular target: the molecule itself
Experiment: cross-linking

Protein	binding result
His-hArc/Arg3.1 (recombinant human activity-regulated cytoskeleton-associated protein), wild type (natural protein, UniProt Q7LC44 2-396, looked up) ELDHRTSGGLHAYPGPRGGQVAKPNVILQIGKCRAEMLEHVRRTHRHLLAEVSKQVERELKGLHRSVGKLESNLDGYVPTSDSQRWKKSIKACLCRCQETIANLERWVKREMHVWREVFYRLERWADRLESTGGKYPVGSESARHTVSVGVGGPESYCHEADGYDYTVSPYAITPPPAAGELPGQEPAEAQQYQPWVPGEDGQPSPGVDTQIFEDPREFLSHLEEYLRQVGGSEEYWLSQIQNHMNGPAKKWWEFKQGSVKNWVEFKKEFLQYSEGTLSREAIQRELDLPQKQGEPLDQFLWRKRDLYQTLYVDADEEEIIQYVVGTLQPKLKRFLRHPLPKTLEQLIQRGMEVQDDLEQAAEPAGPHLPVEDEAETLTPAPNSESVASDRTQPE	binds
His-hArc/Arg3.1 C94/98A (natural protein, human, UniProt Q7LC44 2-396, looked up) ELDHRTSGGLHAYPGPRGGQVAKPNVILQIGKCRAEMLEHVRRTHRHLLAEVSKQVERELKGLHRSVGKLESNLDGYVPTSDSQRWKKSIKAALCRAQETIANLERWVKREMHVWREVFYRLERWADRLESTGGKYPVGSESARHTVSVGVGGPESYCHEADGYDYTVSPYAITPPPAAGELPGQEPAEAQQYQPWVPGEDGQPSPGVDTQIFEDPREFLSHLEEYLRQVGGSEEYWLSQIQNHMNGPAKKWWEFKQGSVKNWVEFKKEFLQYSEGTLSREAIQRELDLPQKQGEPLDQFLWRKRDLYQTLYVDADEEEIIQYVVGTLQPKLKRFLRHPLPKTLEQLIQRGMEVQDDLEQAAEPAGPHLPVEDEAETLTPAPNSESVASDRTQPE	binds
